Experimental data reported in article PMC10353998 (2023).

B1: eGFP-GGSG-Flag-RBM20-WT [human] / Transportin-3 [human (endogenous in HeLa)] (parent complex)
chain 1: MVLAAAMSQDADPSGPEQPDRVACSVPGARASPAPSGPRGMQQPPPPPQPPPPPQAGLPQIIQNAAKLLDKNPFSVSNPNPLLPSPASLQLAQLQAQLTLHRLKLAQTAVTNNTAAATVLNQVLSKVAMSQPLFNQLRHPSVITGPHGHAGVPQHAAAIPSTRFPSNAIAFSPPSQTRGPGPSMNLPNQPPSAMVMHPFTGVMPQTPGQPAVILGIGKTGPAPATAGFYEYGKASSGQTYGPETDGQPGFLPSSASTSGSVTYEGHYSHTGQDGQAAFSKDFYGPNSQGSHVASGFPAEQAGGLKSEVGPLLQGTNSQWESPHGFSGQSKPDLTAGPMWPPPHNQPYELYDPEEPTSDRTPPSFGGRLNNSKQGFIGAGRRAKEDQALLSVRPLQAHELNDFHGVAPLHLPHICSICDKKVFDLKDWELHVKGKLHAQKCLVFSENAGIRCILGSAEGTLCASPNSTAVYNPAGNEDYASNLGTSYVPIPARSFTQSSPTFPLASVGTTFAQRKGAGRVVHICNLPEGSCTENDVINLGLPFGKVTNYILMKSTNQAFLEMAYTEAAQAMVQYYQEKSAVINGEKLLIRMSKRYKELQLKKPGKAVAAIIQDIHSQRERDMFREADRYGPERPRSRSPVSRSLSPRSHTPSFTSCSSSHSPPGPSRADWGNGRDSWEHSPYARREEERDPAPWRDNGDDKRDRMDPWAHDRKHHPRQLDKAELDERPEGGRPHREKYPRSGSPNLPHSVSSYKSREDGYYRKEPKAKSDKYLKQQQDAPGRSRRKDEARLRESRHPHPDDSGKEDGLGPKVTRAPEGAKAKQNEKNKTKRTDRDQEGADDRKENTMAENEAGKEEQEGMEESPQSVGRQEKEAEFSDPENTRTKKEQDWESESEAEGESWYPTNMEELVTVDEVGEEEDFIVEPDIPELEEIVPIDQKDKICPETCLCVTTTLDLDLAQDFPKEGVKAVGNGAAEISLKSPRELPSASTSCPSDMDVEMPGLNLDAERKPAESETGLSLEDSDCYEKEAKGVESSDVHPAPTVQQMSSPKPAEERARQPSPFVDDCKTRGTPEDGACEGSPLEEKASPPIETDLQNQACQEVLTPENSRYVEMKSLEVRSPEYTEVELKQPLSLPSWEPEDVFSELSIPLGVEFVVPRTGFYCKLCGLFYTSEETAKMSHCRSAVHYRNLQKYLSQLAEEGLKETEGADSPRPEDSGIVPRFERKKL
chain 2: MEGAKPTLQLVYQAVQALYHDPDPSGKERASFWLGELQRSVHAWEISDQLLQIRQDVESCYFAAQTMKMKIQTSFYELPTDSHASLRDSLLTHIQNLKDLSPVIVTQLALAIADLALQMPSWKGCVQTLVEKYSNDVTSLPFLLEILTVLPEEVHSRSLRIGANRRTEIIEDLAFYSSTVVSLLMTCVEKAGTDEKMLMKVFRCLGSWFNLGVLDSNFMANNKLLALLFEVLQQDKTSSNLHEAASDCVCSALYAIENVETNLPLAMQLFQGVLTLETAYHMAVAREDLDKVLNYCRIFTELCETFLEKIVCTPGQGLGDLRTLELLLICAGHPQYEVVEISFNFWYRLGEHLYKTNDEVIHGIFKAYIQRLLHALARHCQLEPDHEGVPEETDDFGEFRMRVSDLVKDLIFLIGSMECFAQLYSTLKEGNPPWEVTEAVLFIMAAIAKSVDPENNPTLVEVLEGVVRLPETVHTAVRYTSIELVGEMSEVVDRNPQFLDPVLGYLMKGLCEKPLASAAAKAIHNICSVCRDHMAQHFNGLLEIARSLDSFLLSPEAAVGLLKGTALVLARLPLDKITECLSELCSVQVMALKKLLSQEPSNGISSDPTVFLDRLAVIFRHTNPIVENGQTHPCQKVIQEIWPVLSETLNKHRADNRIVERCCRCLRFAVRCVGKGSAALLQPLVTQMVNVYHVHQHSCFLYLGSILVDEYGMEEGCRQGLLDMLQALCIPTFQLLEQQNGLQNHPDTVDDLFRLATRFIQRSPVTLLRSQVVIPILQWAIASTTLDHRDANCSVMRFLRDLIHTGVANDHEEDFELRKELIGQVMNQLGQQLVSQLLHTCCFCLPPYTLPDVAEVLWEIMQVDRPTFCRWLENSLKGLPKETTVGAVTVTHKQLTDFHKQVTSAEECKQVCWALRDFTRLFR

Variants of: B1
Test: co-immunoprecipitation, mass spectrometry; cytoplasmic fractions, HeLa; normalized to Neg; n = 3; parent: 1.7; read off a plot

Row | screen value | Variant
1 | ~1.5 | chain 1 P633L
2 | ~0.3 | chain 1 R634Q, chain 1 S635E, chain 1 S637E
3 | ~0.9 | chain 1 R634Q

Variants of: B1
Test: co-immunoprecipitation, western blot quantification; HeLa cells expressing eGFP-RBM20, cytoplasmic fraction; n = 3; parent: 3.3; read off a plot

Row | response [relative HRP signal] | Variant
4 | ~2.4 | chain 1 P633L
5 | ~1.2 | chain 1 R634Q, chain 1 S635E, chain 1 S637E
6 | ~1.6 | chain 1 R634Q
